Tested on: Escherichia coli TOP10
Assay: shrunken log2 fold change of peptide-encoding DNA abundance (4.5 h post-induction vs induction); higher = less antimicrobial activity (less host growth inhibition)
Conditions: time post-induction: 4.5 h; library: site-saturation at positions 5, 18, 19, 20
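Also: peptides expressed intracellularly from a pBAD plasmid library in pooled LB shake-flask culture, induced with 0.3% L-arabinose, DNA abundance read by NGS, three biological replicates, DESeq2 with apeglm shrinkage.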

Sequence | shrunken log2 fold change
RRIRHRPPRLPRPRPRPNAMPRP | -0.0505
RRIRHRPPRLPRPRPRPNARPRP | -0.0163
RRIRHRPPRLPRPRPRPNCEPRP | -0.0369
RRIRHRPPRLPRPRPRPNCRPRP | -0.0986
RRIRHRPPRLPRPRPRPNDPPRP | -0.246
RRIRHRPPRLPRPRPRPNDVPRP | -0.0131
RRIRHRPPRLPRPRPRPNESPRP | -0.506
RRIRHRPPRLPRPRPRPNFHPRP | -0.407
RRIRHRPPRLPRPRPRPNHLPRP | -0.0856
RRIRHRPPRLPRPRPRPNHTPRP | -1.04
RRIRHRPPRLPRPRPRPNIVPRP | -0.0257
RRIRHRPPRLPRPRPRPNIYPRP | -0.11
RRIRHRPPRLPRPRPRPNLQPRP | -0.0526
RRIRHRPPRLPRPRPRPNLYPRP | -0.012
RRIRHRPPRLPRPRPRPNMWPRP | -0.799
RRIRHRPPRLPRPRPRPNNAPRP | -0.11
RRIRHRPPRLPRPRPRPNNEPRP | -0.724
RRIRHRPPRLPRPRPRPNNHPRP | -0.915
RRIRHRPPRLPRPRPRPNPCPRP | -0.132
RRIRHRPPRLPRPRPRPNPIPRP | -0.023
RRIRHRPPRLPRPRPRPNREPRP | -0.107
RRIRHRPPRLPRPRPRPNRLPRP | 0.0234

Sequence | shrunken log2 fold change
RRIRHRPPRLPRPRPRPNSVPRP | -0.00436
RRIRHRPPRLPRPRPRPNWLPRP | -0.165
RRIRHRPPRLPRPRPRPNYAPRP | 0.0414
RRIRHRPPRLPRPRPRPPADPRP | 0.492
RRIRHRPPRLPRPRPRPPAWPRP | 0.0414
RRIRHRPPRLPRPRPRPPCCPRP | -0.0551
RRIRHRPPRLPRPRPRPPCLPRP | -0.0439
RRIRHRPPRLPRPRPRPPDDPRP | 0.256
RRIRHRPPRLPRPRPRPPEKPRP | -0.00804
RRIRHRPPRLPRPRPRPPETPRP | 0.0733
RRIRHRPPRLPRPRPRPPGCPRP | 0.184
RRIRHRPPRLPRPRPRPPHTPRP | 0.249
RRIRHRPPRLPRPRPRPPNAPRP | 0.257
RRIRHRPPRLPRPRPRPPNLPRP | 0.189
RRIRHRPPRLPRPRPRPPNVPRP | -0.0106
RRIRHRPPRLPRPRPRPPPTPRP | 0.766
RRIRHRPPRLPRPRPRPPPWPRP | 0.446
RRIRHRPPRLPRPRPRPPQPPRP | 0.216
RRIRHRPPRLPRPRPRPPQWPRP | 0.0657
RRIRHRPPRLPRPRPRPPRAPRP | 0.667
RRIRHRPPRLPRPRPRPPRRPRP | 0.452
RRIRHRPPRLPRPRPRPPTKPRP | 0.161

Sequence | shrunken log2 fold change
RRIRHRPPRLPRPRPRPPTLPRP | 0.246
RRIRHRPPRLPRPRPRPPTPPRP | 0.518
RRIRHRPPRLPRPRPRPPTWPRP | 0.0706
RRIRHRPPRLPRPRPRPPVEPRP | 0.126
RRIRHRPPRLPRPRPRPPVHPRP | 0.00286
RRIRHRPPRLPRPRPRPPWKPRP | 0.174
RRIRHRPPRLPRPRPRPPYPPRP | -0.0246
RRIRHRPPRLPRPRPRPQDAPRP | -0.00992
RRIRHRPPRLPRPRPRPQDVPRP | 0.0527
RRIRHRPPRLPRPRPRPQELPRP | -0.122
RRIRHRPPRLPRPRPRPQERPRP | -0.0325
RRIRHRPPRLPRPRPRPQEVPRP | -0.0461
RRIRHRPPRLPRPRPRPQFTPRP | -0.182
RRIRHRPPRLPRPRPRPQIEPRP | -0.24
RRIRHRPPRLPRPRPRPQIMPRP | -0.682
RRIRHRPPRLPRPRPRPQKDPRP | 0.0122
RRIRHRPPRLPRPRPRPQNAPRP | -0.135
RRIRHRPPRLPRPRPRPQPDPRP | -0.0791
RRIRHRPPRLPRPRPRPQPLPRP | -0.0863
RRIRHRPPRLPRPRPRPQRNPRP | -0.223
RRIRHRPPRLPRPRPRPQSVPRP | -0.267
RRIRHRPPRLPRPRPRPQTCPRP | -0.653

Sequence | shrunken log2 fold change
RRIRHRPPRLPRPRPRPQTKPRP | -0.0667
RRIRHRPPRLPRPRPRPQTRPRP | -0.148
RRIRHRPPRLPRPRPRPQTYPRP | -0.193
RRIRHRPPRLPRPRPRPQVKPRP | -1.6
RRIRHRPPRLPRPRPRPQYKPRP | -0.252
RRIRHRPPRLPRPRPRPQYTPRP | -1.27
RRIRHRPPRLPRPRPRPQYVPRP | -0.213
RRIRHRPPRLPRPRPRPRCCPRP | -0.079
RRIRHRPPRLPRPRPRPREVPRP | 0.151
RRIRHRPPRLPRPRPRPRFWPRP | 0.112
RRIRHRPPRLPRPRPRPRHFPRP | -0.0239
RRIRHRPPRLPRPRPRPRHYPRP | -0.285
RRIRHRPPRLPRPRPRPRIFPRP | -0.121
RRIRHRPPRLPRPRPRPRIWPRP | 0.242
RRIRHRPPRLPRPRPRPRKLPRP | -0.141
RRIRHRPPRLPRPRPRPRKMPRP | -0.246
RRIRHRPPRLPRPRPRPRKNPRP | 0.00268
RRIRHRPPRLPRPRPRPRLDPRP | -0.0149
RRIRHRPPRLPRPRPRPRLYPRP | 0.114
RRIRHRPPRLPRPRPRPRMEPRP | -0.0339
RRIRHRPPRLPRPRPRPRMHPRP | -0.0289
RRIRHRPPRLPRPRPRPRMLPRP | -0.192

Sequence | shrunken log2 fold change
RRIRHRPPRLPRPRPRPRQDPRP | -0.189
RRIRHRPPRLPRPRPRPRRPPRP | 0.385
RRIRHRPPRLPRPRPRPRSCPRP | -0.0982
RRIRHRPPRLPRPRPRPRSLPRP | 0.295
RRIRHRPPRLPRPRPRPRSQPRP | 0.136
RRIRHRPPRLPRPRPRPRSYPRP | -0.12
RRIRHRPPRLPRPRPRPRTWPRP | 0.207
RRIRHRPPRLPRPRPRPRVIPRP | -0.12
RRIRHRPPRLPRPRPRPRVTPRP | 0.0786
RRIRHRPPRLPRPRPRPRWCPRP | 0.0475
RRIRHRPPRLPRPRPRPRWQPRP | 0.176
RRIRHRPPRLPRPRPRPRWRPRP | 0.355
RRIRHRPPRLPRPRPRPRYDPRP | -0.0205
RRIRHRPPRLPRPRPRPSANPRP | -0.228
RRIRHRPPRLPRPRPRPSCDPRP | -0.336
RRIRHRPPRLPRPRPRPSCHPRP | -0.509
RRIRHRPPRLPRPRPRPSCNPRP | -0.599
RRIRHRPPRLPRPRPRPSCSPRP | -0.876
RRIRHRPPRLPRPRPRPSDEPRP | -0.000726
RRIRHRPPRLPRPRPRPSDKPRP | -0.355
RRIRHRPPRLPRPRPRPSEAPRP | -0.344

From the supplement of paper PMC9112550, “Optimization of the antimicrobial peptide Bac7 by deep mutational scanning” (BMC Biology, 2022)
